Results on 139 substances are retold here after the supplement of paper PMC12042874.

± gives the uncertainty stated by the source.

This data set can be described thus: amyloid nucleation score (Sup35N fusion, yeast selection) (log enrichment); library NNK1; higher = more nucleation; inactive = no reads after selection. The gist of the method: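 Yeast lacking psi expressed peptides of 20 random codons fused to Sup35N, received 100 μM copper sulfate for 24 hours, and were then grown for 7 days at 30°C on medium lacking adenine and uracil. Illumina sequencing of input and output plasmid inserts provided the reads. Nucleation scores are DiMSum log enrichments of output over input, centred on the mode of non-aggregating sequences. Any sequence with under 100 input reads was excluded.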
For RNSLNTLSPTARCSVSTFVR, the amyloid nucleation score was found to be 0.562 ± 1.2. The substance SLQHGYVVYVIVFLDATSNT yielded an amyloid nucleation score of -0.186 ± 0.86. As to VFYVFWYFRLCI, the amyloid nucleation score stood at 0.035 ± 0.2.

For the substance VMAPERST, the amyloid nucleation score was -0.905 ± 1.6. In turn, LDFKDSGLYLPYKGNYGSV registered an amyloid nucleation score of 0.378 ± 0.68.

SCSWFFTYIVVAVNTLSISY: the amyloid nucleation score was -0.444 ± 0.75. Substance KTRLSWYWKITCLLHSMKFS yielded an amyloid nucleation score of -0.12 ± 0.4.

The substance FSALLIPENISD showed an amyloid nucleation score of -1.25 ± 1.7. For YFMFSLCSYSNYWLRWGFV, the amyloid nucleation score is 0.121 ± 0.22. The value for MDARKTGTDNWRTS was -0.202 ± 0.32; that for YSHYNTIGLYILSKVSSMAV was “inactive”. With IDMCYWISVPAKNVHVIDIP, the amyloid nucleation score came out at 1.29 ± 0.6. On to WLGVNDSLGFICEAVGWYGW, for which the amyloid nucleation score was 0.604 ± 0.63. With CQIPVFENYFLHLGWSYAPL, the amyloid nucleation score was 0.224 ± 1.4. In the case of MMLLYCRLIWSPISDRICQF, the amyloid nucleation score is -0.498 ± 0.42.

With DSAIWDKNFSLDMGSGFMHC, the amyloid nucleation score is -0.125 ± 1.7. On to FADIKYLSTFG, for which the amyloid nucleation score is -0.045 ± 0.37. The same measure for SLYYGGLQER: -0.02 ± 0.29. For SLRFQSYRAWSMGWKLDDSC, the amyloid nucleation score came to 0.821 ± 1.1. PFRMQNDIVRDQYSVKLQWF returned an amyloid nucleation score of 3.29 ± 0.17. On to LYESELLNNHQETSPQSSEG, for which the amyloid nucleation score is -0.349 ± 0.56. The same measure for RQPVRAMHLDISVRWSYWSV: 2.79 ± 0.12. In turn, YFVHQNKHRTKIIILGLGLI registered an amyloid nucleation score of 1.35 ± 0.5.

Substance GLDCVRGNQWVNQGVL had an amyloid nucleation score of 2.32 ± 0.15. Substance SDYRRPKEPVSS gave an amyloid nucleation score of 3.01 ± 0.16. Substance MMVFKVSFKVIKVT displayed an amyloid nucleation score of -0.07 ± 0.86. GFPSRSIHFKLYLAANMQ came in with an amyloid nucleation score of 1.07 ± 0.53. The same measure for SIASIIRRFNWDTK: 3.87 ± 0.095; for SMYFQRP: 0.53 ± 0.26. In the case of RISLVPRDASPESSTKSSSI, the amyloid nucleation score result is “inactive”.

GNLVCGCVVLQIMHIERGMA yielded an amyloid nucleation score of 7.481 ± 0.046. The same measure for GIVGGDQYMLFNLYVGFSYP: 1.45 ± 0.15; for HWVDLVGESNNSISFAVVFC: 4.9 ± 0.079; for GLSVFSCQFFFNSTAFFSVN: 6.061 ± 0.06. Consider RLLFLMSWSSVVWINCRVWS, for which the amyloid nucleation score was found to be 0.657 ± 0.6. The same measure for MSAIVSHYLVHCKFQSGNSH: 3.63 ± 0.12.

Take PQPYTRNIERLAYVFTLDMP: the amyloid nucleation score was -0.21 ± 0.27. With KTCWTILSVLLTLK, the amyloid nucleation score came to 0.489 ± 0.58. Consider SACGVIRRLSAGYNCFYVK, for which the amyloid nucleation score is 0.229 ± 0.51.

The substance YGVCT had an amyloid nucleation score of 0.49 ± 0.22. On to SWRGICV, for which the amyloid nucleation score result is “inactive”. Turning to GVMRKNMNKAWFTRDIDSF, the amyloid nucleation score came to 0.752 ± 0.41. The substance DLKVNCVGEWADRLFMFSFG had an amyloid nucleation score of 0.683 ± 0.84.

The substance KYVIKCTSWVGAMTHSSSKA yielded an amyloid nucleation score of 0.333 ± 0.24. The value for VKKLQVA was 1.11 ± 0.74; that for YFPGVSRGQVDEPVYLCCQR was 0.068 ± 0.57.

MYMIWEQGKPCSILDTHTVT displayed an amyloid nucleation score of 0.598 ± 0.26.

In the case of TFCLLSINLEFINVLRLFKS, the amyloid nucleation score was 3.58 ± 0.12. For RRVSLH, the amyloid nucleation score came to 0.416 ± 0.6. The value for MLLWVWMEFY was 0.991 ± 0.33; that for LCITRT was -0.521 ± 0.56; that for NMEITYLSVFVAVYVHLHFF was -0.728 ± 0.88.

HSCYLYTSLLIFDMCRYWFL returned an amyloid nucleation score of 0.719 ± 0.48. KVLWMSSHLYSATSCCVKRS registered an amyloid nucleation score of 1.82 ± 0.34. Take PRNVFMSKTNNHFQRAFSVT: the amyloid nucleation score is 0.925 ± 0.69. With TVSLGVAAVMFPR, the amyloid nucleation score was 0.95 ± 0.36. The value for WGMIWCTIYGSVSNNNINLV was 4.2 ± 0.053; that for YKATRRRQLLSPVIGEDQIG was 0.208 ± 0.32; that for DCESVWSIKGNKPMLFDRIL was -1.45 ± 1.7. For the substance GVRETHLPSMLRRTALRFTF, the amyloid nucleation score amounted to 0.026 ± 0.36. In turn, RLNHEFFGYKRKTKLAGGLR returned an amyloid nucleation score of -0.107 ± 1.2.

The substance GMLISTSIMHNES registered an amyloid nucleation score of 0.164 ± 0.4.

For GSIERFTFISVYYRLTPLSG, the amyloid nucleation score was -0.035 ± 0.54. The value for LLMNQV was 0.715 ± 0.5; that for SSNYADNEGSAHQFGNRRES was -0.108 ± 0.43; that for IMKSFMDATYVSCFWILMPA was 1.57 ± 0.53. Consider CMRMRMFSKVVGSLWWESGY, for which the amyloid nucleation score came to 0.054 ± 0.39. As to GFFLSPLVRIISMTEMKVMK, the amyloid nucleation score came out at 0.571 ± 1.2. Turning to LTLMGRSMNKYVAGSTTRAL, the amyloid nucleation score is -0.371 ± 0.29. As to CRGFFLGFPIHQVKAFCFCR, the amyloid nucleation score is -0.047 ± 1.7.

Substance TCVGDCGCIGWSTIFFSDYS returned an amyloid nucleation score of 1.43 ± 0.72.

As for RLYFYGFRDSLWQFNLSEEH, the amyloid nucleation score was determined as 7.619 ± 0.052. TSRSSVFRVAFHCGGSDSLV gave an amyloid nucleation score of 0.039 ± 0.43. The substance SFLRGMASWLTQMHGKGWGW yielded an amyloid nucleation score of 0.239 ± 0.69. As to MYLCVRLGSIKYFSGVLWS, the amyloid nucleation score is 0.056 ± 1.4. On to VGFEGHS, for which the amyloid nucleation score is -0.58 ± 0.6. With SKTGRGTLVMEVSRCEVYDF, the amyloid nucleation score came to 0.027 ± 1.7.

WVAVRDMKGYRSRKKGQSWH showed an amyloid nucleation score of 0.199 ± 0.5.

As for WINKYYDLN, the amyloid nucleation score came out at 0.472 ± 0.42. Substance CGSRSCSLFDRKWIRYFLGC showed an amyloid nucleation score of 0.759 ± 0.34. AWCSSDGCFCPKRYMLLRSL gave an amyloid nucleation score of 0.159 ± 0.84. As for PWRCLM, the amyloid nucleation score entry is “inactive”. The same measure for TVEYNRPFCRFIFCGSGYRH: -1.2 ± 0.92. The value for GDRRLSVLGPYMARSVWGER was -0.242 ± 0.31; that for SFIPKVGCKKEPARRASGNV was 0.413 ± 1.4. In turn, NCGGRVSG came in with an amyloid nucleation score of 8.076 ± 0.06. For the substance CMTPS, the amyloid nucleation score result was “inactive”. TGLSWVYSFRIEYVKVGFY showed an amyloid nucleation score of 0.426 ± 0.9.

The substance LYIMLLLLLLTSQYT returned an amyloid nucleation score of -0.347 ± 0.63. SLWITFLPLIGLSAVRRRVR: the amyloid nucleation score was -1.24 ± 1.4. The same measure for RDTTTT: 0.088 ± 0.33; for YVWMSDPSVTNHRGRLVDMG: 5.02 ± 0.098. For NPGAYKYHSLSYTSRGGMFV, the amyloid nucleation score came to 0.486 ± 0.38. As to WDAHGDIVKG, the amyloid nucleation score turned out to be 0.877 ± 1. Consider FDADGHPLKTPLCMGLSCGG, for which the amyloid nucleation score is -0.129 ± 1.6. As for KNVSRVCV, the amyloid nucleation score result was “inactive”. On to FFRRDFFFYNSLGMH, for which the amyloid nucleation score was 0.233 ± 1.4. DLVTSYWKIEGPILRSGGNM yielded an amyloid nucleation score of -0.563 ± 0.49. The value for TTTNCRI was 0.057 ± 0.23; that for LGFCTLFISMEDQLCVLQIL was -0.546 ± 1.2; that for YHVDC was -0.13 ± 0.34.

The substance HHWNLIEHYMLDECMEHLNS showed an amyloid nucleation score of -0.183 ± 0.31. Regarding FSVYAWGVFFDAVWFSCAVA, the amyloid nucleation score amounted to 1.29 ± 0.84. In turn, FTIIFSTYISMVVVDLRVVP gave an amyloid nucleation score of -0.409 ± 0.36. As for TWLQPLNRTMNWMTSTAGFR, the amyloid nucleation score result is “inactive”.

Consider KNDVASLLLGSMLKANSTCC, for which the amyloid nucleation score is 0.413 ± 1.4. With VRYMWFAAGTREVTWSAFFM, the amyloid nucleation score was -0.014 ± 0.32. The same measure for SLRITLVWGRMQCGPESVCR: 0.745 ± 0.24; for FRDFWLDNVLNMMVGCAARD: -0.692 ± 1.2; for VSYFVHIC: 0.145 ± 0.56. MSSLQG registered an amyloid nucleation score of -0.246 ± 1.1. The same measure for QGKKPGGFQNEDMVVVLKWR: -0.601 ± 0.46; for QISRCILNNPRPCLSF: 1.01 ± 0.9; for LYIFLNEDDRFSMKQGVKGG: 0.546 ± 0.83. CNSLTLFRWYFNMVGNIQAN came in with an amyloid nucleation score of -0.143 ± 0.37.

TGPKRLTDNREFRKF: the amyloid nucleation score is -1.01 ± 2.7. STFNFTRIASADMSGTSTIW gave an amyloid nucleation score of 0.505 ± 0.33. The substance NSWQLFYLCSQLIRKSSTLC showed an amyloid nucleation score of 0.029 ± 0.37. The substance SIPRGFLLVLLVDNPTIRLQ yielded an amyloid nucleation score of -0.358 ± 0.32. Regarding TSNCGTSLIDHSVRLLMLQR, the amyloid nucleation score is -0.163 ± 0.49. On to FTVLSVVSALQGGRHYPLMG, for which the amyloid nucleation score came to 0.357 ± 0.33. The value for RMCLDGPITWFDRHK was 2.16 ± 0.15; that for RSWVCSSGLMVLRWNGRSYF was “inactive”; that for CVCLKDPANLSAIGCRGESL was -1.6 ± 2.7. The value for WKLPWALSRPVKYRYHEVGR was 0.225 ± 0.43. Turning to VVEFCCVQT, the amyloid nucleation score is -1.53 ± 1.7. For the substance LLYFRVRSMFKGLRNETYMA, the amyloid nucleation score stood at 0.411 ± 0.27. The value for VDNNARDTSVGSALENMWVL was 1.16 ± 0.62; that for GPSLGVIFKEIWFYYG was 0.541 ± 0.3. With MITWMYASWYNRPVLVYQFW, the amyloid nucleation score was found to be 0.233 ± 0.28.

As for PFSDSVARSDGCGVQRV, the amyloid nucleation score was -0.444 ± 1.2. In the case of GSRYHEECRWTCREAPTDAR, the amyloid nucleation score was -1.07 ± 1.6.

In turn, GQDSGSSNVFSSCICNLHVF gave an amyloid nucleation score of 7.715 ± 0.046. Take MCYVRMTFGTRDCHERVSLS: the amyloid nucleation score result is “inactive”. GESRGS registered an amyloid nucleation score of 0.473 ± 0.43. For the substance YFGLRSVKRWQT, the amyloid nucleation score is -0.106 ± 0.52. As for DIHNRDCVLYDRLDRHVYMK, the amyloid nucleation score is -0.083 ± 0.31. On to GSGKCVPGDTELAILGLKR, for which the amyloid nucleation score is 0.299 ± 0.7. MLCFSLVYNGREGYEINLLH showed an amyloid nucleation score of -0.552 ± 0.31.
